According to the RNAGym collection of RNA variant scans (doi:10.1093/molbev/msab373):

B1: Azoarcus group I ribozyme (parent)
chain: GUGCCUUGCGCCGGGAAACCACGCAAGGGAUGGUGUCAAAUUCGGCGAAACCUAAGCGCCCGCCCGGGCGUAUGGCAACGCCGAGCCAAGCUUCGGCGCCUGCGCCGAUGAAGGUGUAGAGACUAGACGGCACCCACCUAAGGCAAACGCUAUGGUGAAGGCAUAGUCCAGGGAGUGGCGAAAGUCACACAAACCGG

Variants of: B1
Test: reverse-splicing fitness (ratio to wild type); higher = more active; in vitro selection; Mg2+ level not given
Procedure, shortened: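 An in vitro group I ribozyme library with randomized positions was T7-transcribed and gel-purified. In triplicate, 10 pmol RNA in EPPS pH 7.5 was reacted with 50 pmoles of a 30-nt RNA substrate for 1 h at 37 °C across several added MgCl2 levels (1–48 mM), then stopped with EDTA. Products were reverse transcribed from a substrate-complementary primer, PCR-amplified and sequenced (HiSeq 4000). Fitness is a variant's read proportion after selection over that before, normalised to wild type.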

Row | Variant | reverse-splicing fitness
1 | A111G C169U U176C | 0.0614
2 | A111G C169U U176G | 0.00769
3 | A111G U176A | 0.794
4 | A111G U176C | 0.752
5 | A111G U176G | 0.354
6 | A111U | 0.971
7 | A111U A120C | 0.587
8 | A111U A120C A145C | 0.537
9 | A111U A120C A145C C150A | 0.0343
10 | A111U A120C A145C C150A C169A | 0.00677
11 | A111U A120C A145C C150A C169A U176A | 0.0101
12 | A111U A120C A145C C150A C169A U176C | 0.00583
13 | A111U A120C A145C C150A C169A U176G | 0.00536
14 | A111U A120C A145C C150A C169G | 0.00677
15 | A111U A120C A145C C150A C169G U176A | 0.0194
16 | A111U A120C A145C C150A C169G U176C | 0.00889
17 | A111U A120C A145C C150A C169G U176G | 0.00536
18 | A111U A120C A145C C150A C169U | 0.013
19 | A111U A120C A145C C150A C169U U176A | 0.0169
20 | A111U A120C A145C C150A C169U U176C | 0.0123
21 | A111U A120C A145C C150A C169U U176G | 0.00524

Row | Variant | reverse-splicing fitness
22 | A111U A120C A145C C150A U176A | 0.0267
23 | A111U A120C A145C C150A U176C | 0.0236
24 | A111U A120C A145C C150A U176G | 0.00877
25 | A111U A120C A145C C150G | 0.0767
26 | A111U A120C A145C C150G C169A | 0.00818
27 | A111U A120C A145C C150G C169A U176A | 0.00803
28 | A111U A120C A145C C150G C169A U176C | 0.00519
29 | A111U A120C A145C C150G C169A U176G | 0.00509
30 | A111U A120C A145C C150G C169G | 0.00716
31 | A111U A120C A145C C150G C169G U176A | 0.00898
32 | A111U A120C A145C C150G C169G U176C | 0.0059
33 | A111U A120C A145C C150G C169G U176G | 0.00475
34 | A111U A120C A145C C150G C169U | 0.0236
35 | A111U A120C A145C C150G C169U U176A | 0.0109
36 | A111U A120C A145C C150G C169U U176C | 0.0144
37 | A111U A120C A145C C150G C169U U176G | 0.00478
38 | A111U A120C A145C C150G U176A | 0.0176
39 | A111U A120C A145C C150G U176C | 0.04
40 | A111U A120C A145C C150G U176G | 0.00429
41 | A111U A120C A145C C150U | 0.17
42 | A111U A120C A145C C150U C169A | 0.00788

Row | Variant | reverse-splicing fitness
43 | A111U A120C A145C C150U C169A U176A | 0.00887
44 | A111U A120C A145C C150U C169A U176C | 0.00539
45 | A111U A120C A145C C150U C169A U176G | 0.00529
46 | A111U A120C A145C C150U C169G | 0.00744
47 | A111U A120C A145C C150U C169G U176A | 0.0171
48 | A111U A120C A145C C150U C169G U176C | 0.00958
49 | A111U A120C A145C C150U C169G U176G | 0.00481
50 | A111U A120C A145C C150U C169U | 0.05
51 | A111U A120C A145C C150U C169U U176A | 0.0199
52 | A111U A120C A145C C150U C169U U176C | 0.0178
53 | A111U A120C A145C C150U C169U U176G | 0.0056
54 | A111U A120C A145C C150U U176A | 0.0815
55 | A111U A120C A145C C150U U176C | 0.0967
56 | A111U A120C A145C C150U U176G | 0.019
57 | A111U A120C A145C C169A | 0.00906
58 | A111U A120C A145C C169A U176A | 0.00934
59 | A111U A120C A145C C169A U176C | 0.00538
60 | A111U A120C A145C C169A U176G | 0.00493
61 | A111U A120C A145C C169G | 0.00891
62 | A111U A120C A145C C169G U176A | 0.023
63 | A111U A120C A145C C169G U176C | 0.0106

Row | Variant | reverse-splicing fitness
64 | A111U A120C A145C C169G U176G | 0.00463
65 | A111U A120C A145C C169U | 0.164
66 | A111U A120C A145C C169U U176A | 0.0309
67 | A111U A120C A145C C169U U176C | 0.0419
68 | A111U A120C A145C C169U U176G | 0.00517
69 | A111U A120C A145C U176A | 0.232
70 | A111U A120C A145C U176C | 0.243
71 | A111U A120C A145C U176G | 0.0498
72 | A111U A120C A145G | 0.569
73 | A111U A120C A145G C150A | 0.0986
74 | A111U A120C A145G C150A C169A | 0.0121
75 | A111U A120C A145G C150A C169A U176A | 0.0184
76 | A111U A120C A145G C150A C169A U176C | 0.0204
77 | A111U A120C A145G C150A C169A U176G | 0.00601
78 | A111U A120C A145G C150A C169G | 0.00836
79 | A111U A120C A145G C150A C169G U176A | 0.0161
80 | A111U A120C A145G C150A C169G U176C | 0.0246
81 | A111U A120C A145G C150A C169G U176G | 0.00488
82 | A111U A120C A145G C150A C169U | 0.034
83 | A111U A120C A145G C150A C169U U176A | 0.0208
